# According to patent US6767991:
# Key:
# Assay in all cases: cell-based or functional assay
# [1] = target: recombinant NS3 protease with the NS4A peptide cofactor … (molar ratio enzyme:cofactor 1:100) (hepatitis C virus genotype 1b)
# [2] = target: human leukocyte elastase (human) (UniProt P08246)
# [3] = target: recombinant HCV NS3 protease type 1b (amino acid 1027 to 1206) (hepatitis C virus genotype 1b)
# [4] = target: porcine pancreatic elastase (porcine) (UniProt P00772)
# [5] = target: bovine pancreatic α-chymotrypsin (bovine) (UniProt P00766)
# [6] = target: human liver cathepsin B (human) (UniProt P07858)
# Sequence of porcine pancreatic elastase (porcine) (P00772 27-266): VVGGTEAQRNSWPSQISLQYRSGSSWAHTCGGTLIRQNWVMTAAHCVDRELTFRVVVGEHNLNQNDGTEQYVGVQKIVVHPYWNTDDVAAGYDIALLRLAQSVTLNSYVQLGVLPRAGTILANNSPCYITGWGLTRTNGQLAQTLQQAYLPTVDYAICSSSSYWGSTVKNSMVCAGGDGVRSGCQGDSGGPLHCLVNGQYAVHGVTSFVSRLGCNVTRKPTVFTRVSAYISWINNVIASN
# Sequence of human leukocyte elastase (human) (P08246 30-247 limits assumed): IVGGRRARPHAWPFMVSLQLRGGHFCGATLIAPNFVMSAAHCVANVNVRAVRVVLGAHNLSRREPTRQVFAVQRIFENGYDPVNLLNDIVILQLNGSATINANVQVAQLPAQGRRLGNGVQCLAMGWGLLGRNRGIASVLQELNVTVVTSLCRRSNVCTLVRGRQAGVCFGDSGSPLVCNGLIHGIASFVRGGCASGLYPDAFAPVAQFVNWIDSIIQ
Substance,IC50 [1] [µM],other results
"Compound 518 (Table 5): Ac-Asp-D-Glu-Chg-Val-Pro(1-NpCH2O)-P1(R14 Et; 1R, 2R) (peptide)",0.011,HLE [2]: > 300 µM
"Compound 509 (Table 5): Ac-Asp-D-Glu-Chg-Chg-Pro(1-NpCH2O)-P1(R14 Et; 1R, 2R) (peptide)",0.015,HLE [2]: > 300 µM
Compound 227 (Table 2): Ac-Chg-Val-Pro(1-NpCH2O)-Acca (peptide),,HLE [2]: > 600 µM
Compound 206 (Table 2): Ac-Asp-Asp-Ile-Val-Pro(p-tolyl-methoxy)-Nva (peptide),,IC50 [3]: 6.4 µM
"Compound 603 (Table 6): P4 Chg, P3 Val, R13 1-NpCH2O, R14 CH═CH2 (peptide)",0.36,
"Compound 513 (Table 5): Ac-Chg-Val-Pro(1-NpCH2O)-P1(R14 Et; 1R, 2R) (peptide)",,HLE [2]: > 300 µM
"Compound 510 (Table 5): Ac-Chg-Val-Pro(1-NpCH2O)-P1(R14 CH2OCH2Ph; 1R, 2?) (peptide)",15.5,
"Compound 515 (Table 5): Ac-Chg-Val-Pro(1-NpCH2O)-P1(R14 Bz; 1R, 2?) (peptide)",9.2,
"Compound 516 (Table 5): Ac-Chg-Val-Pro(1-NpCH2O)-P1(R14 Bz; 1R, 2?) (peptide)",46.5,
Compound 204 (Table 2): Ac-Asp-Asp-Ile-Val-Pro(o-tolyl-methoxy)-Nva (peptide),,IC50 [3]: 9.4 µM
"Compound 505 (Table 5): Ac-Chg-Chg-Pro(1-NpCH2O)-P1(R14 Et; 1R, 2R) (peptide)",0.55,
Compound 205 (Table 2): Ac-Asp-Asp-Ile-Val-Pro(m-tolyl-methoxy)-Nva (peptide),,IC50 [3]: 6.7 µM
Compound 212 (Table 2): Ac-Asp-D-Glu-Ile-Val-Pro(O-Bn)-Acca (peptide),0.21,PPE [4]: > 300 µM; HLE [2]: > 300 µM
Compound 231 (Table 2): Ac-Chg-Chg-Pro(1-NpCH2O)-Acca (peptide),2.6,
"Compound 508 (Table 5): Ac-Chg-Val-Pro(1-NpCH2O)-P1(R14 CHMe2; 1R, 2?) (peptide)",4.15,
Compound 127 (Table 1): Ac-Asp-Asp-Ile-Val-Pip-Nva (peptide),,IC50 [3]: 605 µM
"Compound 604 (Table 6): P4 Chg, P3 Val, R13 OBn, R14 CH═CHBr* (peptide)",2.55,
"Compound 602 (Table 6): P4 Chg, P3 Chg, R13 1-NpCH2O, R14 CH═CH2 (peptide)",0.13,
Compound 210 (Table 2): Ac-Asp-D-Glu-Chg-Val-Pro(O-Bn)-Cys (peptide),0.033,Other [5]: > 300 µM; PPE [4]: > 300 µM; HLE [2]: > 300 µM
Compound 240 (Table 2): Ac-Chg-Val-Pro((3Br-Ph)O)-Acca (peptide),42,
Compound 249 (Table 2): Ac-Chg-Val-Pro((4I-Ph)O)-Acca (peptide),9.7,
"Compound 520 (Table 5): Ac-Chg-Val-Pro(1-NpCH2O)-P1(R14 Pr; 1R, 2?) (peptide)",22.5,
Compound 232 (Table 2): AcOCH2-C(O)-Chg-Chg-Pro(1-NpCH2O)-Acca (peptide),1.4,
Compound 242 (Table 2): Ac-Chg-Val-Pro((4Br-Ph)S)-Acca (peptide),36,
Compound 238 (Table 2): Ac-Chg-Val-Pro((4Br-Ph)O)-Acca (peptide),27,HLE [2]: 195 µM

Substance,IC50 [1] [µM],other results
Compound 114 (Table 1): Ac-Asp-Asp-Ile-Chg-Pro-Cys (peptide),,IC50 [3]: 50 µM
Compound 129 (Table 1): Ac-Asp-Tbg-Ile-Val-Pro-Nva (peptide),,IC50 [3]: 270 µM
Compound 115 (Table 1): Ac-Asp-Asp-Ile-Val-Abu-Cys (peptide),,IC50 [3]: 58 µM
"Compound 501 (Table 5): Ac-Chg-Val-Pro(OBn)-P1(R14 Et; 1R, 2R) (peptide)",17.1,
Compound 235 (Table 2): Boc-Chg-Chg-Pro(1-NpCH2O)-Acca (peptide),12,
"Compound 506 (Table 5): Ac-Chg-Chg-Pro(1-NpCH2O)-P1(R14 Et; 1S, 2S) (peptide)",,HLE [2]: > 400 µM
Compound 234 (Table 2): Ac-Chg-Chg-Pro(O-Bn)-Acca (peptide),41,
"Compound 512 (Table 5): Ac-Chg-Val-Pro(1-NpCH2O)-P1(R14 (CH2)2Ph; 1R, 2?) (peptide)",19.5,
"Compound 511 (Table 5): Ac-Chg-Val-Pro(1-NpCH2O)-P1(R14 CH2OCH2Ph; 1R, 2?) (peptide)",32.5,
"Compound 601 (Table 6): P4 Chg, P3 Val, R13 OBn, R14 CH═CH2 (peptide)",3.61,
"Compound 503 (Table 5): Ac-Chg-Chg-Pro(1-NpCH2O)-P1(R14 Et; 1R, 2?) (peptide)",1.35,HLE [2]: 250 µM
"Compound 521 (Table 5): Ac-Asp-D-Val-Chg-Val-Pro(1-NpCH2O)-P1(R14 Et; 1R, 2R) (peptide)",0.024,HLE [2]: > 300 µM
Compound 268 (Table 2): Ac-Chg-Val-Pro((3Br-Ph)CH2O)-Acca (peptide),24,
Compound 252 (Table 2): Ac-Chg-Val-Pro(1-NpCH2O)-Nva (peptide),20,
Compound 203 (Table 2): Ac-Asp-D-Glu-Ile-Val-Pro(O-Bn)-Nva (peptide),0.6,Other [6]: > 300 µM; PPE [4]: > 300 µM; HLE [2]: > 300 µM
"Compound 514 (Table 5): Ac-Chg-Val-Pro(1-NpCH2O)-P1(R14 Et; 1S, 2S) (peptide)",27.5,
"Compound 502 (Table 5): Ac-Chg-Val-Pro(OBn)-P1(R14 Et; 1R, 2?) (peptide)",12.6,
Compound 110 (Table 1): Ac-Asp-Asp-Chg-Val-Pro-Cys (peptide),,IC50 [3]: 24 µM
"Compound 519 (Table 5): Ac-Chg-Val-Pro(1-NpCH2O)-P1(R14 Pr; 1R, 2?) (peptide)",3.45,
Compound 239 (Table 2): Ac-Chg-Val-Pro((2Br-Ph)O)-Acca (peptide),27,
"Compound 504 (Table 5): Ac-Chg-Chg-Pro(1-NpCH2O)-P1(R14 Et; 1R, 2?) (peptide)",9.53,
"Compound 507 (Table 5): Ac-Chg-Val-Pro(1-NpCH2O)-P1(R14 Me; 1R, 2?) (peptide)",5.1,
Compound 123 (Table 1): Ac-Asp-Asp-Ile-Val-Pro-Nva (peptide),220,PPE [4]: > 300 µM; HLE [2]: > 300 µM
Compound 214 (Table 2): Ac-Asp-D-Glu-Chg-Val-Pro(2-NpCH2O)-Nva (peptide),0.028,Other [5]: > 300 µM; Other [6]: > 300 µM; PPE [4]: > 300 µM; HLE [2]: > 300 µM
"Compound 272 (Table 2): Ac-Chg-Val-Pro((3,5-Br2-Ph)CH2O)-Acca (peptide)",27,
